This assay has as its target yeast microtubules (assembled from tubulin purified from yeast, Tub1/Tub2-6His) (yeast, UniProt P09733 1-447; P02557 1-457). Briefly: TIRF microscopy-based microtubule-binding assay.

The source of these data is article doi:10.1101/2021.02.02.429374 (bioRxiv, 2021).

For orientation: Kd means the constant that tells how readily two partners part at equilibrium. A lower Kd goes with higher affinity.

Chain of yeast microtubules (assembled from tubulin purified from yeast, Tub1/Tub2-6His) (P09733 whole entry, chain 1 of 2): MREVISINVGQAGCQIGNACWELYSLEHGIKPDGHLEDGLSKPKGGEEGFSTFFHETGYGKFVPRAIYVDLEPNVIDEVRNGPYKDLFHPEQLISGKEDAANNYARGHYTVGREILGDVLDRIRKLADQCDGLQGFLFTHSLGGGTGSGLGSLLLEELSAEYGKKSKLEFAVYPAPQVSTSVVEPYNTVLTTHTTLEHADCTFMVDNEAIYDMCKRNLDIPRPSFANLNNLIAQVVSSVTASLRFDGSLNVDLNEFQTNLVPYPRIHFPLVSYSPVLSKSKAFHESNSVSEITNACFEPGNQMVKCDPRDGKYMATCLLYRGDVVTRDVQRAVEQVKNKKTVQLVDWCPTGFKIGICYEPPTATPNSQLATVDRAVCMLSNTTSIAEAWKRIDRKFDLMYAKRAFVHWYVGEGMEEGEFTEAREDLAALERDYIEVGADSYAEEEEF
Chain of yeast microtubules (assembled from tubulin purified from yeast, Tub1/Tub2-6His) (P02557 whole entry, chain 2 of 2): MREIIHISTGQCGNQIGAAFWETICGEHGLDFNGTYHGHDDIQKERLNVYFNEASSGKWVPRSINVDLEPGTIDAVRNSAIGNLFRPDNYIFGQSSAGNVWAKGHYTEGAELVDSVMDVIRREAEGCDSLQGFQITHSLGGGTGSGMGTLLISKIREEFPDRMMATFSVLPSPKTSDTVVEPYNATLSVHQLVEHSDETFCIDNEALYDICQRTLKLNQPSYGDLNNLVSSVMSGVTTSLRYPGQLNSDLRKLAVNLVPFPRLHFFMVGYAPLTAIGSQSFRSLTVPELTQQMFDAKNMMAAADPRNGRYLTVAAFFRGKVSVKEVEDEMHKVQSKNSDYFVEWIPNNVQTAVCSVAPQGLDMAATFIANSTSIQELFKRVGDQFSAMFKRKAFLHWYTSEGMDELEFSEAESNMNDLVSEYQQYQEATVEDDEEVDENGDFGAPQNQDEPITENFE

B1: She1-HaloTag^TMR (wild-type She1) (natural protein, budding yeast, UniProt P38200 1-338, looked up)
chain: MNDKLQEEHNEKDTTSQINGFTPPHMSIDFHSNNNSNIIETIGVSKRLGNSVLSELDSRASSKFEFLKDQSEQQYNGDKNNEPKSGSYNINEFFQAKHDSQFGQMESLDTHYTLLHTPKRKSQHAIPQDRSDSMKRSRPSRSIPYTTPVVNDITRRIRRLKLRNSLVNGNDIVARARSMQANSNINSIKNTPLSKPKPFMHKPNFLMPTTNSLNKINSAHRNTSSSSTASSIPRSKVHRSISIRDLHAKTKPVERTPVAQGTNSQLKNSVSVFDRLYKQTTFSRSTSMNNLSSGTSAKSKEHTNVKTRLVKSKTSGSLSSNLKQSTATGTKSDRPIWR
modifications: HaloTag-TMR ligand on the HaloTag
On to B1, for which the Kd worked out at 854 nM. This lies in the sub-micromolar range.

B2: She1-NLS^SV40-HaloTag (other)
chain: MNDKLQEEHNEKDTTSQINGFTPPHMSIDFHSNNNSNIIETIGVSKRLGNSVLSELDSRASSKFEFLKDQSEQQYNGDKNNEPKSGSYNINEFFQAKHDSQFGQMESLDTHYTLLHTPKRKSQHAIPQDRSDSMKRSRPSRSIPYTTPVVNDITRRIRRLKLRNSLVNGNDIVARARSMQANSNINSIKNTPLSKPKPFMHKPNFLMPTTNSLNKINSAHRNTSSSSTASSIPRSKVHRSISIRDLHAKTKPVERTPVAQGTNSQLKNSVSVFDRLYKQTTFSRSTSMNNLSSGTSAKSKEHTNVKTRLVKSKTSGSLSSNLKQSTATGTKSDRPIWRGSGSAAAPKKKRKVG
modifications: HaloTag-TMR ligand on the HaloTag
For B2, the affinity, expressed as Kd, was 806 nM.
